B1: Hammerhead Ribozyme (parent)
chain: ACCGGAUGUGCUUUCCGGUCUGAUGAGUCCGUGAGGACGAAACAG

Variants of: B1
Experiment: self-cleavage, relative activity (ratio to wild type); higher = more cleavage; co-transcriptional

| Variant | self-cleavage |
| --- | --- |
| U13C C38G | 0.458 |
| A1C C16G | 0.351 |
| U7C G45U | 0.622 |
| G4C U24A | 0.777 |
| A26G C38U | 0.337 |
| G17U C43U | 0.379 |
| G18U A23G | 0.288 |
| A26U U28A | 0.464 |
| G17A U21G | 0.39 |
| G10C U13G | 1.24 |
| U28A A42G | 0.25 |
| U12A C20A | 0.313 |
| U24C A40U | 0.281 |
| A26U G27U | 0.315 |
| G5C A44C | 0.345 |
| C2G C29U | 0.365 |
| U7C U32C | 0.949 |
| U24A C30G | 1.04 |
| G22U U28C | 0.312 |
| U13G A41C | 0.348 |
| U19C G33A | 0.579 |
| U28C C30U | 0.573 |
| G25C G27U | 0.294 |
| G27U A42U | 0.315 |

| Variant | self-cleavage |
| --- | --- |
| C11A G36C | 0.911 |
| U12C G36C | 0.713 |
| U12C A44G | 1.6 |
| C3U G33A | 0.953 |
| G4C A34C | 0.679 |
| A34U A40U | 0.305 |
| C3A A44G | 1.01 |
| U28C A34U | 0.723 |
| C20A G45C | 0.414 |
| G27U C38A | 0.785 |
| U24A A37G | 1.09 |
| U7A C11U | 1.4 |
| U19C G35A | 0.64 |
| G22C G31U | 0.309 |
| G17U A40C | 0.449 |
| G5C G31A | 0.855 |
| G17C G39C | 0.291 |
| G18C A26G | 0.319 |
| G18C A23U | 0.32 |
| C20A A40G | 0.326 |
| U13G C29A | 0.595 |
| C29U C38U | 1.04 |
| C15U C38U | 0.82 |
| G36U G39C | 0.34 |

| Variant | self-cleavage |
| --- | --- |
| G8U G39U | 0.344 |
| U9A C20G | 0.422 |
| U9A A26U | 0.865 |
| A23G A41C | 0.34 |
| A23G A41G | 0.334 |
| G8U A44C | 0.59 |
| U19G C30G | 0.41 |
| C15U C43U | 0.483 |
| U9C G27C | 0.774 |
| C16G A34C | 0.647 |
| C20U C38G | 0.298 |
| G4U C15U | 0.523 |
| A26G G45C | 0.389 |
| G4C C43A | 0.285 |
| A6G A42U | 0.219 |
| C3A A34U | 0.358 |
| G17U A41G | 0.375 |
| C2U U21G | 0.742 |
| A37U C43U | 0.38 |
| U12G G39A | 0.4 |
| U28G C38U | 0.858 |
| U28A A40G | 0.394 |
| G5A A23G | 0.385 |
| U7C C11G | 1.37 |

| Variant | self-cleavage |
| --- | --- |
| G18A C43G | 0.28 |
| C30U G36A | 0.547 |
| U19C A26G | 0.242 |
| A37C C43A | 0.301 |
| G35A G36C | 0.484 |
| U19C U24G | 0.552 |
| C3G G25A | 0.296 |
| U24G U32G | 0.405 |
| C3U G8C | 0.936 |
| C30A U32A | 0.797 |
| G25A U32A | 0.352 |
| U9G A44U | 0.388 |
| C16U A37C | 0.843 |
| G22C U24G | 0.281 |
| G5A U32G | 0.533 |
| A1U A37U | 0.464 |
| U28G G33A | 1.02 |
| U7A G45U | 0.484 |
| U7A A40C | 0.261 |
| A40U G45A | 0.343 |
| U24G G35C | 0.839 |
| C3G G35U | 0.32 |
| U13C C20G | 0.293 |
| U13C C20A | 0.573 |

| Variant | self-cleavage |
| --- | --- |
| U14C G18U | 0.413 |
| G31U C38A | 0.776 |
| C2A G45U | 0.417 |
| A1C C30A | 0.4 |
| A26U A44G | 1.04 |
| A42U A44G | 1.37 |
| U13C C29U | 0.819 |
| C11A C29A | 0.783 |
| G4U A26G | 0.274 |
| A26C G27U | 0.397 |
| G8A A37U | 0.731 |
| U14C G45A | 0.472 |
| A37G C38A | 0.639 |
| C38U C43A | 0.414 |
| G36C A40C | 0.4 |
| G25U G36C | 0.312 |
| G25U A34G | 0.261 |
| U14G G31C | 0.967 |
| A1G C43G | 0.395 |
| C15G G33A | 0.9 |
| C2U U12A | 1.26 |
| C2U U12C | 1.06 |
| G22U C38G | 0.33 |
| G10C C16A | 0.995 |

| Variant | self-cleavage |
| --- | --- |
| G35U C43G | 0.34 |
| U12A C38A | 0.807 |
| A1G U32C | 1.48 |
| C2U U32C | 0.971 |
| C2U U32G | 1.04 |
| G18C U19G | 0.224 |
| A41C G45C | 0.336 |
| G27A A44C | 0.373 |
| C3U U9C | 1.08 |
| C15G A23G | 0.32 |
| G10C A42C | 0.34 |
| U12A U28G | 0.92 |
| U32A A44U | 0.633 |
| G18A A42C | 0.376 |
| U9C G45C | 0.648 |
| G25A | 0.377 |
| G4C A42G | 0.359 |
| U7G U14C | 0.944 |
| C38A A41G | 0.338 |
| C20G A37G | 0.3 |
| U21A G25U | 0.333 |
| G22U A23U | 0.307 |
| U7A C43U | 0.302 |
| G17U C20A | 0.422 |

| Variant | self-cleavage |
| --- | --- |
| C11G G18U | 0.725 |
| U7G U28G | 0.502 |
| U24C G31U | 0.982 |
| A23U C30U | 0.402 |
| C20U G35U | 0.347 |
| U19C G36U | 0.443 |
| G22C G36U | 0.322 |
| U24A U28C | 1.27 |
| U9A A42U | 0.332 |
| G5U A26U | 0.449 |
| G35C A44C | 0.42 |
| G31A C38A | 0.766 |
| U9G G27U | 0.329 |
| G8U A26C | 0.596 |
| U32G G33A | 0.843 |
| G8A G25C | 0.276 |
| U28C G31U | 0.854 |
| U19C C29G | 0.434 |
| G18U C20A | 0.326 |
| G8U U21A | 0.782 |
| U9A C29A | 0.49 |
| U19A A23G | 0.426 |
| U7C C43A | 0.309 |

— the RNAGym collection of RNA variant scans (doi:10.7554/elife.80360)
